# Experimental data as given in PMC2757917, “Mutations in the DNA-Binding Domain of NR2E3 Affect In Vivo Dimerization and Interaction with CRX” (PLoS ONE, 2009).
# B1: human NR2E3 wild-type protein (pcDNA3.1/HisC-hNR2E3) (natural protein)
# chain: not shown
# notes: NR2E3 (PNR), photoreceptor-specific nuclear receptor, human, SwissProt Q9Y5X4; band of 45 kDa on the denaturing gel; also called PNR; pcDNA-NR2E3-His/C; source: HEK293T, transiently transfected, in lysate
# Target: the molecule itself
# Assay: native gel or EMSA; total protein extracts of transfected HEK293T cells on an 8% PAA-gel under non-denaturing conditions, Western blot with an anti-NR2E3 antibody
protein,measurement,value
B1,stoichiometry N,2
